Data on 36 substances can be found in the supplement of paper PMC5998384.

The subject of series [1] is HeLa Kyoto. As to the kind of experiment: solubility change mitosis vs G1/S (difference of NP-40 vs SDS log2 ratios) (log2 ratio difference); higher = more soluble in mitosis.
Series [2] deals with HeLa Kyoto. Nature of the series: solubility in G1/S (NP-40 vs SDS abundance) (log2 ratio); higher = more soluble. Conditions: cell cycle stage: G1/S.
Series [3] concerns HeLa Kyoto. Nature of the series: thermal stability score vs G1/S (z-score of summed log2 fold changes over temperatures); higher = more thermally stable than in G1/S.
The mark [4] stands for this setting: cell cycle stage: early G1 (4.5 h after nocodazole release).
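For solubility change mitosis vs G1/S (difference of NP-40 vs SDS log2 ratios) in this document: synchronized HeLa Kyoto cells (double thymidine block for G1/S, nocodazole release for mitosis), protein amounts in NP-40 versus SDS lysates quantified by mass spectrometry, three biological replicates.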
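For solubility in G1/S (NP-40 vs SDS abundance) in this document: HeLa Kyoto cells arrested at G1/S by double thymidine block, proteins quantified by TMT10plex mass spectrometry in mild NP-40 versus SDS extracts, three biological replicates.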
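For thermal stability score vs G1/S (z-score of summed log2 fold changes over temperatures) in this document: synchronized HeLa Kyoto cells, proteins quantified by TMT10plex mass spectrometry, three biological replicates, mitosis taken 0.5 h after nocodazole release, G1/S directly after double thymidine block.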

Sequence of DGKZ (chain, as listed by the source): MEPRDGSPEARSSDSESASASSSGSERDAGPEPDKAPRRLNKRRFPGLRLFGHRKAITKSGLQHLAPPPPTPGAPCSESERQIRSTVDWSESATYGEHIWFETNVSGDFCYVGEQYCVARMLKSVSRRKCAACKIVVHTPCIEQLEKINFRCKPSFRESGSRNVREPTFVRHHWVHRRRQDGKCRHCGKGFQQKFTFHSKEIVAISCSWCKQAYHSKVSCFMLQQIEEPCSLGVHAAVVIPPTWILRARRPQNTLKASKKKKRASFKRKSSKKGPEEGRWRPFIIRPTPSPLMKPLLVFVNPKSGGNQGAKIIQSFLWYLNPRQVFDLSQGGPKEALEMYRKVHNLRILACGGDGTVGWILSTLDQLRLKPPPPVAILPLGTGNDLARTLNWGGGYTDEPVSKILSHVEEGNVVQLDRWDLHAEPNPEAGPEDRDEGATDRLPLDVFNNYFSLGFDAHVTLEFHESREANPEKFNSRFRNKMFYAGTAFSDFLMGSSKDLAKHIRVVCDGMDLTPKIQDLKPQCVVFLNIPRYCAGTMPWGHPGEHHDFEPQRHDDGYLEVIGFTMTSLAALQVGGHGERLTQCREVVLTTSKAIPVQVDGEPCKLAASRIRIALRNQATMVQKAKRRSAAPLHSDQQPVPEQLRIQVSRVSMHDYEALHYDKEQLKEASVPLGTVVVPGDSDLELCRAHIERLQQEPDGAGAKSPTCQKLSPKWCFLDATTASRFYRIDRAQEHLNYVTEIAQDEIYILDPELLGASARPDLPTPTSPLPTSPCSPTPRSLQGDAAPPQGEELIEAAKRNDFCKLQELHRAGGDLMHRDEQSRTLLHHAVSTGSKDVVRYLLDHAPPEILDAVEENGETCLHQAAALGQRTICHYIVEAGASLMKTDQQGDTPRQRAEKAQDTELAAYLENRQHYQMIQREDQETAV
Sequence of JAG2 (chain, as listed by the source): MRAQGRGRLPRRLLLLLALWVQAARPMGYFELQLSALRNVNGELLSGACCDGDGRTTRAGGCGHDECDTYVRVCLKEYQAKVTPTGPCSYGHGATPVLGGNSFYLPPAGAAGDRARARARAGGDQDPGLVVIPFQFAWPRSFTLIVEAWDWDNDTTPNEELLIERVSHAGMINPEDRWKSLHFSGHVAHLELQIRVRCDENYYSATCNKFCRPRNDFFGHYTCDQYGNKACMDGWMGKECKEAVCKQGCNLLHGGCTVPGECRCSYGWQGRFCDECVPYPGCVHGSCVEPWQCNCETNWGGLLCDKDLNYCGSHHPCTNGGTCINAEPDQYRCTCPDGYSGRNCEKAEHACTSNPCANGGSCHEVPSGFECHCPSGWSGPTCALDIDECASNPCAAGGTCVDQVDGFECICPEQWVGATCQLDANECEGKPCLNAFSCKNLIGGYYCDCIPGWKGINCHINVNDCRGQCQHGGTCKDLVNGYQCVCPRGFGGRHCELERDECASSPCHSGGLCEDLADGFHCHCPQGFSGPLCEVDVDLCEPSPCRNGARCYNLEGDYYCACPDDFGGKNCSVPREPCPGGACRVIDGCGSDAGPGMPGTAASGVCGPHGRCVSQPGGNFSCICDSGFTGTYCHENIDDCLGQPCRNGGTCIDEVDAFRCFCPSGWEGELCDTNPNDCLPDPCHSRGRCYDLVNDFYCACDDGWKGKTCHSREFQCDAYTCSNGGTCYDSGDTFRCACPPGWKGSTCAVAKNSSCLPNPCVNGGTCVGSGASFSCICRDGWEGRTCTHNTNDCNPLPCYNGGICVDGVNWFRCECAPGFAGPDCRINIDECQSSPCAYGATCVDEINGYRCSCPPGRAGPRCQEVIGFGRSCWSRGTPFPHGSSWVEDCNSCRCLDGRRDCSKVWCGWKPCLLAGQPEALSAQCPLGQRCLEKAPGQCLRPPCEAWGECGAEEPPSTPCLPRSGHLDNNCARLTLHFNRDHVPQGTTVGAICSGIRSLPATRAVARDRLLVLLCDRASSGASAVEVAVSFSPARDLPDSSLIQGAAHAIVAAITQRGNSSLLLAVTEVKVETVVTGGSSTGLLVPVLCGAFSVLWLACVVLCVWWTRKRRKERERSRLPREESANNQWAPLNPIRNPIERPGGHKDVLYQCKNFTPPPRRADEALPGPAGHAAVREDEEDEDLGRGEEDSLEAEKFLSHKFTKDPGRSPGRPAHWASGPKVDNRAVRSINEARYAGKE
Sequence of DNLZ (chain, as listed by the source): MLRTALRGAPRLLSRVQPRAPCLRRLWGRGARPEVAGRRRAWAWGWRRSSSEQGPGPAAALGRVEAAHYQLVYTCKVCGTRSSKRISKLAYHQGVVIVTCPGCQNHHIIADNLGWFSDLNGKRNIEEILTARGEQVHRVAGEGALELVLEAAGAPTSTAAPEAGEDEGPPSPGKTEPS
Sequence of CABIN1 (chain, as listed by the source): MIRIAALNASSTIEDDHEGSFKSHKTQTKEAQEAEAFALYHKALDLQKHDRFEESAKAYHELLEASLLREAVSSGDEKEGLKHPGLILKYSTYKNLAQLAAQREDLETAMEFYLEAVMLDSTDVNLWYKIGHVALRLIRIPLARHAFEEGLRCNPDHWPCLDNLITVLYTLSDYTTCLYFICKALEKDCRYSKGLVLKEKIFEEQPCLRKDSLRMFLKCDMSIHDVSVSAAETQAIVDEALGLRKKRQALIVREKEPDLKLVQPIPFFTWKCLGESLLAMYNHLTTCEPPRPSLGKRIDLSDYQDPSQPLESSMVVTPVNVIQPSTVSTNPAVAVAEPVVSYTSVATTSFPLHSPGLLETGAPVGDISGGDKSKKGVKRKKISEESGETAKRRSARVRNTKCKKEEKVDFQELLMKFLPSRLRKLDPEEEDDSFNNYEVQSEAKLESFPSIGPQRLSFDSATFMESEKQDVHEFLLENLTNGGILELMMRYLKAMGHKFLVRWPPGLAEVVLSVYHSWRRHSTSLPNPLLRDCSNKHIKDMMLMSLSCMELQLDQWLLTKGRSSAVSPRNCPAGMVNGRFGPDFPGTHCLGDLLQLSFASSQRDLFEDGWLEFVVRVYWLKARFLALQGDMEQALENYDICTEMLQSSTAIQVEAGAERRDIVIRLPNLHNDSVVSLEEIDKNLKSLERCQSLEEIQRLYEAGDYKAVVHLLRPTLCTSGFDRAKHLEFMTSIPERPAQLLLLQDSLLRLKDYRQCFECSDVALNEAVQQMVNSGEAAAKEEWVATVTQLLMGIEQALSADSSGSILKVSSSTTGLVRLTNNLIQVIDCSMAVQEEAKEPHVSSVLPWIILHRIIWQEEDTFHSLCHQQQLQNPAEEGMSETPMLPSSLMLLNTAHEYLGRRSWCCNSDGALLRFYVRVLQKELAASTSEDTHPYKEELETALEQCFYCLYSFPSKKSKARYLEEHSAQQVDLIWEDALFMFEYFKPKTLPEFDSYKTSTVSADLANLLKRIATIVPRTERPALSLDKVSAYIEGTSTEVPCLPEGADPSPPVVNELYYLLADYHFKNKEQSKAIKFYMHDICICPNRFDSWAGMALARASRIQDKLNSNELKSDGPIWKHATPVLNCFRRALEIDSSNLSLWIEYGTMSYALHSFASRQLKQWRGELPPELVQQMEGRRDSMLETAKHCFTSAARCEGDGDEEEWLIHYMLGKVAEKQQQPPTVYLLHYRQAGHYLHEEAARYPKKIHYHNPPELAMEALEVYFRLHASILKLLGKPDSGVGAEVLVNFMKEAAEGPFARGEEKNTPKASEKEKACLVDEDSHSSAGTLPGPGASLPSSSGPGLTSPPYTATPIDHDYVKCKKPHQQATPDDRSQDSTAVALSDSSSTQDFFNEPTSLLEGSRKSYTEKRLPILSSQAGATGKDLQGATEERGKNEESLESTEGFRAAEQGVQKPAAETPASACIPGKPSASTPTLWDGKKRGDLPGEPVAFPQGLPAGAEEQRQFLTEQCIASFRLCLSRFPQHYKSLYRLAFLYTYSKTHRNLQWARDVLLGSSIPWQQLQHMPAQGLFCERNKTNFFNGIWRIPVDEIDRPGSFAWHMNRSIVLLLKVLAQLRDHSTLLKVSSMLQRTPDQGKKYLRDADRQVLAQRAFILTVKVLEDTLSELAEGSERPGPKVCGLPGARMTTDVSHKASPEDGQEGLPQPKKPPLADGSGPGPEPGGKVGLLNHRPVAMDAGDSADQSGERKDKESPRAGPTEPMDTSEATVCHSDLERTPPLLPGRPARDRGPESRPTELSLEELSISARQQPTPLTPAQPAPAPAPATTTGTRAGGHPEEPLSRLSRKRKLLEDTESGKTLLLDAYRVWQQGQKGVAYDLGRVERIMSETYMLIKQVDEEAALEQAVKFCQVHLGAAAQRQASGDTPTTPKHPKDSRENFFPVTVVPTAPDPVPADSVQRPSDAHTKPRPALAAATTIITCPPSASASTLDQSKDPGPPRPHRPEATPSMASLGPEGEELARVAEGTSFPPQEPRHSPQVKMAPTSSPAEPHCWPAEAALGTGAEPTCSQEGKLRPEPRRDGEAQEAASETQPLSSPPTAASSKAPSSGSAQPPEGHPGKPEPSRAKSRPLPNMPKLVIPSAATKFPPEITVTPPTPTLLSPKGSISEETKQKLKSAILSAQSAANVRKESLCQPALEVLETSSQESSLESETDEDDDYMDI
Sequence of HOXC10 (chain, as listed by the source): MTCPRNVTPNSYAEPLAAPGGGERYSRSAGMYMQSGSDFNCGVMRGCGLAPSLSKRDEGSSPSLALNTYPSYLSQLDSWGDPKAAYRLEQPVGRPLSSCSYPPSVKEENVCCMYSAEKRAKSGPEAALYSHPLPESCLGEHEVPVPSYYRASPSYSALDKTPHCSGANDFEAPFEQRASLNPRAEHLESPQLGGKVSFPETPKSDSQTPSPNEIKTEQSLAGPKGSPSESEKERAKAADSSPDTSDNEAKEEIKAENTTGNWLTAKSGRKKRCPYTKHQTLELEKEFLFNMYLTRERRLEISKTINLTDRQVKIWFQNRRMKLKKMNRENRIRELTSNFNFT

On to ALMS1, for which the “solubility change mitosis (log2)” value in series [1] was found to be 0.225. Besides, in series [2], the “solubility in G1/S (log2)” value came to 0.395.
In the same order, the values of ALPK2 are 0.00635 and -0.117.
Take BAHCC1: the “solubility change mitosis (log2)” value in series [1] was found to be 0.257. Moreover, in series [2], the “solubility in G1/S (log2)” value is -0.00383.
As for CABIN1, in series [1], the “solubility change mitosis (log2)” value worked out at 0.144. In addition, the “solubility in G1/S (log2)” value in series [2] was -0.34.
The corresponding values for CENPE are -0.1 and -0.0612.
For the substance CEP295, the “solubility change mitosis (log2)” value in series [1] was -0.138. Moreover, the “solubility in G1/S (log2)” value in series [2] worked out at 0.074.
Consider CHD2, for which, in series [1], the “solubility change mitosis (log2)” value came out at 0.389. In series [2], the “solubility in G1/S (log2)” value was -1.9.
In the same order, the values of CHD7 are 0.0296 and -0.18.
The corresponding values for COL4A1 are 0.225 and -0.0938.
In the same order, the values of CROCC are -0.109 and 0.091.
On to DGKZ, for which the “solubility change mitosis (log2)” value in series [1] was 0.323. Further, the “solubility in G1/S (log2)” value in series [2] worked out at 0.0613.
In the same order, the values of DNLZ are 0.242 and -0.145.
HECTD4: the “solubility change mitosis (log2)” value in series [1] was determined as 0.00851. Besides, the “solubility in G1/S (log2)” value in series [2] is -0.212.
In the same order, the values of HOXC10 are -0.0635 and 0.535.
Regarding IFT140, the “solubility change mitosis (log2)” value in series [1] was found to be 0.0597. In series [2], the “solubility in G1/S (log2)” value was -0.373.
For JAG2, in series [1], the “solubility change mitosis (log2)” value was found to be 0.351. Moreover, the “solubility in G1/S (log2)” value in series [2] was -0.54.
In the same order, the values of KCT2 are -0.29 and 0.0557.
In the same order, the values of KLF4 are 0.0866 and -0.0723.
With KLF16, the “solubility change mitosis (log2)” value in series [1] is 0.0196. For the same substance, in series [2], the “solubility in G1/S (log2)” value was determined as 0.106.
In the same order, the values of “MAAAADSFSGGPAGVRLPRSPPLKVLAEQLRRDAEGGPGAWRLSRAAAGRGPLDLAAVWMQGRVVMADRGEARLRDPSGDFSVRGLERVPRGRPCLVPGKYVMVMGVVQACSPEPCLQAVKMTDLSDNPIHESMWELEVEDLHRNIP [RMI2]” are 0.168 and 0.374.
In the case of “MALSKRELDELKPWIEKTVKRVLGFSEPTVVTAALNCVGKGMDKKKAADHLKPFLDDSTLRFVDKLFEAVEEGRSSRHSKSSSDRSRKRELKEVFGDDSEISKESSGVKKRRIPRFEEVEEEPEVIPGPPSESPGMLTKLQIKQMMEAATRQIEERKKQLSFISPPTPQPKTPSSSQPERLPIGNTIQPSQAATFMNDAIEKARKAAELQARIQAQLALKPGLIGNANMVGLANLHAMGIAPPKVELKDQTKPTPLILDEQGRTVDATGKEIELTHRMPTLKANIRAVKREQFKQQLKEKPSEDMESNTFFDPRVSIAPSQRQRRTFKFHDKGKFEKIAQRLRTKAQLEKLQAEISQAARKTGIHTSTRLALIAPKKELKEGDIPEIEWWDSYIIPNGFDLTEENPKREDYFGITNLVEHPAQLNPPVDNDTPVTLGVYLTKKEQKKLRRQTRREAQKELQEKVRLGLMPPPEPKVRISNLMRVLGTEAVQDPTKVEAHVRAQMAKRQKAHEEANAARKLTAEQRKVKKIKKLKEDISQGVHISVYRVRNLSNPAKKFKIEANAGQLYLTGVVVLHKDVNVVVVEGGPKAQKKFKRLMLHRIKWDEQTSNTKGDDDEESDEEAVKKTNKCVLVWEGTAKDRSFGEMKFKQCPTENMAREHFKKHGAEHYWDLALSESVLESTD [PRPF3]”, in series [1], the “solubility change mitosis (log2)” value is 0.331. The thermal stability score came out at 0.798 in series [3] (setting [4]) and 3.15 in series [3] (cell cycle stage: mitosis).
In the same order, the values of “MAQPGTLNLNNEVVKMRKEVKRIRVLVIRKLVRSVGRLKSKKGTEDALLKNQRRAQRLLEEIHAMKELKPDIVTKSALGDDINFEKIFKKPDSTATERAIARLAVHPLLKKKIDVLKAAVQAFKEARQNVAEVESSKNASEDNHSENTLYSNDNGSNLQREATVISEQKVKETKILAKKPIHNSKEKIAKMEHGPKAVTIANSPSKPSEKDSVVSLESQKTPADPKLKTLSQTKKNKGSDSSLSGNSDGGEEFCEEEKEYFDDSTEERFYKQSSMSEDSDSGDDFFIGKVRRTRKKESSCHSSVKEQKPLEKVFLKEDTGETHGDTRNDKIKPSTETRKLESVFFHSLSGSKSSRRNFKEQAPKTRSLDFPQNEPQIKNQFNKKLSGRLENTKQQLQLPLHPSWEASRRRKEQQSNIAVFQGKKITFDD [SRFBP1]” are 0.584, -0.14 and -0.669.
In the same order, the values of “MMCGAPSATQPATAETQHIADQVRSQLEEKENKKFPVFKAVSFKSQVVAGTNYFIKVHVGDEDFVHLRVFQSLPHENKPLTLSNYQTNKAKHDELTYF [CSTB]” are -0.077, -2.35 and -3.83.
In the same order, the values of “MSYGRPPPDVEGMTSLKVDNLTYRTSPDTLRRVFEKYGRVGDVYIPRDRYTKESRGFAFVRFHDKRDAEDAMDAMDGAVLDGRELRVQMARYGRPPDSHHSRRGPPPRRYGGGGYGRRSRSPRRRRRSRSRSRSRSRSRSRSRYSRSKSRSRTRSRSRSTSKSRSARRSKSKSSSVSRSRSRSRSRSRSRSPPPVSKRESKSRSRSKSPPKSPEEEGAVSS [SRSF2]” are 0.24, -2.71 and -5.51.
For “MTKDKNSPGLKKKSQSVDINAPGFNPLAGAGKQTPQASKPPAPKTPIIEEEQNNAANTQKHPSRRSELKRFYTIDTGQKKTLDKKDGRRMSFQKPKGTIEYTVESRDSLNSIALKFDTTPNELVQLNKLFSRAVVTGQVLYVPDPEYVSSVESSPSLSPVSPLSPTSSEAEFDKTTNPDVHPTEATPSSTFTGIRPARVVSSTSEEEEAFTEKFLKINCKYITSGKGTVSGVLLVTPNNIMFDPHKNDPLVQENGCEEYGIMCPMEEVMSAAMYKEILDSKIKESLPIDIDQLSGRDFCHSKKMTGSNTEEIDSRIRDAGNDSASTAPRSTEESLSEDVFTESELSPIREELVSSDELRQDKSSGASSESVQTVNQAEVESLTVKSESTGTPGHLRSDTEHSTNEVGTLCHKTDLNNLEMAIKEDQIADNFQGISGPKEDSTSIKGNSDQDSFLHENSLHQEESQKENMPCGETAEFKQKQSVNKGKQGKEQNQDSQTEAEELRKLWKTHTMQQTKQQRENIQQVSQKEAKHKITSADGHIESSALLKEKQRHRLHKFLCLRVGKPMRKTFVSQASATMQQYAQRDKKHEYWFAVPQERTDHLYAFFIQWSPEIYAEDTGEYTREPGFIVVKKIEESETIEDSSNQAAAREWEVVSVAEYHRRIDALNTEELRTLCRRLQITTREDINSKQVATVKADLESESFRPNLSDPSELLLPDQIEKLTKHLPPRTIGYPWTLVYGTGKHGTSLKTLYRTMTGLDTPVLMVIKDSDGQVFGALASEPLKVSDGFYGTGETFVFTFCPEFEVFKWTGDNMFFIKGDMDSLAFGGGGGEFALWLDGDLYHGRSHSCKTFGNRTLSKKEDFFIQDIEIWAFE [OXR1]”, in series [1], the “solubility change mitosis (log2)” value is -0.176. Moreover, the thermal stability score in series [3] (setting [4]) was -0.363; in series [3] (cell cycle stage: mitosis), -2.03.
For RPS29, the “solubility change mitosis (log2)” value in series [1] stood at 0.655.
On the same count and under the same terms, the value for SCFD1 was -0.0937; that for SLIRP was 0.0681; that for SNCA was 0.157.
The same measure, in the same setting: the value for STAM2 was -0.173.
Take SUPT6H: in series [1], the “solubility change mitosis (log2)” value was 0.0526.
On the same count and under the same terms, the value for TFRC was -0.13; that for TPRG1L was -0.205.
Still for that read-out and setting: the value for UBA52 was 0.558.
The same measure, in the same setting: the value for VPS29 was -0.224; that for WDR5 was -0.102.
